Read-outs that look alike come from different tables or passages of the source.
How the values were obtained:
[1] = target: recombinant human Erythropoietin (rhEPO) (human) (UniProt P01588); assay: ELISA, no periplasmic extract; anti-His-(4) and goat anti-mouse IgG-AP alone on coated rhEPO; negative control, no-antigen well 0.090
[2] = target: hen egg lysozyme (hen) (UniProt P00698); assay: ELISA, no periplasmic extract; anti-His4 and anti-mouse HRP on HEL coated at 1.55 µg/ml
[3] = target: hen egg lysozyme (hen) (UniProt P00698); assay: ELISA, no periplasmic extract; anti-His-(4) and goat anti-mouse IgG-HRP alone on coated HEL (20 µg/ml); negative control, no-antigen well 0.018
[4] = target: hen egg lysozyme (hen) (UniProt P00698); assay: ELISA, no periplasmic extract; anti-His4 and anti-mouse HRP on HEL coated at 3.125 µg/ml
[5] = target: hen egg lysozyme (hen) (UniProt P00698); assay: ELISA, no periplasmic extract; anti-His4 and anti-mouse HRP on HEL coated at 50 µg/ml
[6] = target: hen egg lysozyme (hen) (UniProt P00698); assay: ELISA, no periplasmic extract; anti-His4 and anti-mouse HRP on HEL coated at 100 µg/ml
[7] = target: hen egg lysozyme (hen) (UniProt P00698); assay: ELISA, no periplasmic extract; anti-His4 and anti-mouse HRP on HEL coated at 25 µg/ml
[8] = target: hen egg lysozyme (hen) (UniProt P00698); assay: ELISA, no periplasmic extract; anti-His4 and anti-mouse HRP on coated HEL (100 µg/ml), 12 parallel readings
[9] = target: hen egg lysozyme (hen) (UniProt P00698); assay: ELISA, no periplasmic extract; anti-His4 and anti-mouse HRP on HEL coated at 12.5 µg/ml
[10] = target: hen egg lysozyme (hen) (UniProt P00698); assay: ELISA, no periplasmic extract; anti-His4 and anti-mouse HRP on HEL coated at 200 µg/ml
[11] = target: hen egg lysozyme (hen) (UniProt P00698); assay: ELISA, no periplasmic extract; anti-His4 and anti-mouse HRP on HEL coated at 0.39 µg/ml
[12] = target: hen egg lysozyme (hen) (UniProt P00698); assay: ELISA, no periplasmic extract; anti-His4 and anti-mouse HRP on HEL coated at 6.25 µg/ml
[13] = target: hen egg lysozyme (hen) (UniProt P00698); assay: ELISA, no periplasmic extract; anti-His4 and anti-mouse HRP on coated HEL (100 µg/ml), 12 parallel readings; remark: listed apart in the source

Sequence of UniProt P00698 (P00698 19-147 limits assumed): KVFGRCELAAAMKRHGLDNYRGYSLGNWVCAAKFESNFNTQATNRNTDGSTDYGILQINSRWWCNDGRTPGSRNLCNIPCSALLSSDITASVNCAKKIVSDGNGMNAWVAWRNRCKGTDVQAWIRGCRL
Sequence of UniProt P01588 (P01588 28-192 limits assumed): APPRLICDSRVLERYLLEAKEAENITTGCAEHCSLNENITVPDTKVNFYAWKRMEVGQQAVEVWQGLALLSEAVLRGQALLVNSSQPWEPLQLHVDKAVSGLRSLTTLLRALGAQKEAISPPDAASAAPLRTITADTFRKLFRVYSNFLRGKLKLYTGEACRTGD

An absorbance, no periplasmic extract (control) [1] of 0.095 A 405/620 nm, an ELISA absorbance (no periplasmic extract) [2] of 0.013 A 492/620 and an absorbance, no periplasmic extract (control) [3] of 0.11 A 492/620 nm were found for anti-His4 antibody (Qiagen) in this work. For the same substance, the ELISA absorbance (no periplasmic extract) [4] was 0.017 A 492/620, the ELISA absorbance (no periplasmic extract) [5] was 0.165 A 492/620 and the ELISA absorbance (no periplasmic extract) [6] was 0.36 A 492/620. The ELISA absorbance (no periplasmic extract) [7] was 0.072 A 492/620, the A 492/620 background (antigen alone) [8] was 0.133 A 492/620 and the ELISA absorbance (no periplasmic extract) [9] was 0.038 A 492/620. It also gave an ELISA absorbance (no periplasmic extract) [10] of 0.449 A 492/620, an ELISA absorbance (no periplasmic extract) [11] of 0.007 A 492/620 and an ELISA absorbance (no periplasmic extract) [12] of 0.023 A 492/620. The A 492/620 background (antigen alone) [13] was 0.176 A 492/620.
